Source: article PMC11244893 (bioRxiv, 2024)

Biological target: the molecule itself
Test: SEC + other: diffusion NMR

B1: full-length, wild-type phosphate starvation response like protein-4 (PHL4) (natural protein, Arabidopsis, UniProt Q8GXC2 1-397, looked up)
chain: MIPNDDDDANSMKNYPLNDDDANSMKNYPLNDDDANSMENYPLRSIPTELSHTCSLIPPSLPNPSEAAADMSFNSELNQIMARPCDMLPANGGAVGHNPFLEPGFNCPETTDWIPSPLPHIYFPSGSPNLIMEDGVIDEIHKQSDLPLWYDDLITTDEDPLMSSILGDLLLDTNFNSASKVQQPSMQSQIQQPQAVLQQPSSCVELRPLDRTVSSNSNNNSNSNNAAAAAKGRMRWTPELHEVFVDAVNQLGGSNEATPKGVLKHMKVEGLTIFHVKSHLQKYRTAKYIPVPSEGSPEARLTPLEQITSDDTKRGIDITETLRIQMEHQKKLHEQLESLRTMQLRIEEQGKALLMMIEKQNMGFGGPEQGEKTSAKTPENGSEESESPRPKRPRNEE
Question: For B1, which “stoichiometry N” value is on record?
Answer: The value was 4.
